Laboratory results reported in publication PMC6818471.

B1: GLUT9b: N61Q (protein)
parent chain: MKLSKKDRGEDEESDSAKKKLDWSCSLLVASLAGAFGSSFLYGYNLSVVNAPTPYIKAFYNESWERRHGRPIDPDTLTLLWSVTVSIFAIGGLVGTLIVKMIGKVLGRKHTLLANNGFAISAALLMACSLQAGAFEMLIVGRFIMGIDGGVALSVLPMYLSEISPKEIRGSLGQVTAIFICIGVFTGQLLGLPELLGKESTWPYLFGVIVVPAVVQLLSLPFLPDSPRYLLLEKHNEARAVKAFQTFLGKADVSQEVEEVLAESRVQRSIRLVSVLELLRAPYVRWQVVTVIVTMACYQLCGLNAIWFYTNSIFGKAGIPPAKIPYVTLSTGGIETLAAVFSGLVIEHLGRRPLLIGGFGLMGLFFGTLTITLTLQDHAPWVPYLSIVGILAIIASFCSGPGGIPFILTGEFFQQSQRPAAFIIAGTVNWLSNFAVGLLFPFIQKSLDTYCFLVFATICITGAIYLYFVLPETKNRTYAEISQAFSKRNKAYPPEEKIDSAVTDGKINGRP
B2: GLUT9a: N90Q (protein)
parent chain: MARKQNRNSKELGLVPLTDDTSHAGPPGPGRALLECDHLRSGVPGGRRRKDWSCSLLVASLAGAFGSSFLYGYNLSVVNAPTPYIKAFYNESWERRHGRPIDPDTLTLLWSVTVSIFAIGGLVGTLIVKMIGKVLGRKHTLLANNGFAISAALLMACSLQAGAFEMLIVGRFIMGIDGGVALSVLPMYLSEISPKEIRGSLGQVTAIFICIGVFTGQLLGLPELLGKESTWPYLFGVIVVPAVVQLLSLPFLPDSPRYLLLEKHNEARAVKAFQTFLGKADVSQEVEEVLAESRVQRSIRLVSVLELLRAPYVRWQVVTVIVTMACYQLCGLNAIWFYTNSIFGKAGIPPAKIPYVTLSTGGIETLAAVFSGLVIEHLGRRPLLIGGFGLMGLFFGTLTITLTLQDHAPWVPYLSIVGILAIIASFCSGPGGIPFILTGEFFQQSQRPAAFIIAGTVNWLSNFAVGLLFPFIQKSLDTYCFLVFATICITGAIYLYFVLPETKNRTYAEISQAFSKRNKAYPPEEKIDSAVTDGKINGRP

Columns and labels:
[1] = [14C]-urate uptake, polarized or depolarized oocytes; details: glycan lost
[2] = [14C]-urate uptake, oocytes co-expressing TMEM85; details: glycan lost
[3] = [14C]-urate uptake, oocytes co-expressing ITM2B; details: glycan lost
[4] = confocal immunofluorescence, HEK 293T; details: glycan lost; control: wild type GLUT9b

| Protein | other: transport activity ([1]; control: wild type GLUT9b) | other: inhibition of urate uptake by TMEM85 ([2]; control: wild type GLUT9b) | other: inhibition of urate uptake by ITM2B, other: percent inhibition of uptake ([3]; control: wild type GLUT9b) | localisation_or_trafficking [4] | other: transport activity ([1]; control: wild type GLUT9a) | other: inhibition of urate uptake by TMEM85 ([2]; control: wild type GLUT9a) | other: inhibition of urate uptake by ITM2B, other: percent inhibition of uptake ([3]; control: wild type GLUT9a) |
| --- | --- | --- | --- | --- | --- | --- | --- |
| B1 | no change | no change | no change, ∼65–70 vs 65–70 | no change | – | – | – |
| B2 | – | – | – | – | no change | no change | no change, ∼65–70 vs 65–70 |
